Test results: patent publication US20100239568A1, “DIAGNOSTICS AND TREATMENTS FOR TUMORS” (GENENTECH, INC., priority 2006, published 2010)

Assays:
HUVEC cells = experiment: HUVEC proliferation assay; type: cell-based, human; settings: found in high salt fraction of EL4 and L1210 tumor lysates
Protocol: HUVEC proliferation assay: HUVEC at passage less than 8 were used in the study. Day 1: 3000 cells/well (96-well plate) were plated onto 1% gelatin-coated plate in the assay media (DMEM:F12 50:50) with 1.5% FBS. Day 2: Media was changed and cells were treated with various growth factors or conditioned media. Day 3: ^3H-thymidine was added at 0.5 μCi/well. Day 4: 250 mM EDTA/well was added to stop the reaction in the morning. Cells were harvested onto 96-well filter plate and washed with water 3 times. ^3H samples were counted with TOPCOUNT liquid scintillation counter.

monocytes = experiment: Monocyte migration assay; type: cell-based, human; settings: found in high salt fraction of EL4 and L1210 tumor lysates
Protocol: Monocyte migration assay: Step 1: isolation of monocyte from human PBMC. Blood was diluted with PBS 1:1 (v/v). The diluted blood was slowly added on top of Ficoll and centrifuged at 3000 rpm for 15 min at room temperature (RT) without break. Plasma was removed and white cells were collected (9˜5 ml interphase). Cells were washed in migration buffer containing PBS with 0.5% BSA (low in endotoxin), spun at 1850 rpm (9˜800 g) for 10 min at RT and cells were counted. Step 2: Magnetic labeling of cells. Cell pellet was resuspended in MACS buffer containing PBS with 0.5% BSA (low in endotoxin) and 2 mM EDTA, 30 μl per 10^7 cells. FcR blocking reagent and Biotin-antibody cocktails were added and mixed well. The cells were then incubated for 10 min at 4° C. after which 30 μl more MACS buffer per 10^7 cells was added and anti-biotin Microbeads was added. This was mixed well and incubated for 10 min at 4° C. Cells were washed with MACS buffer by adding 10-20 fold more of the labeling volume, spun at 300g (1250 rpm) for 10 min. Cells were resuspended in up to 10^8 cells in 2 ml buffer. Step 3: Magnetic separation with LS columns. LS column (Miltenyi Biotec) was placed in the magnetic field holder. Column was rinsed with MACS buffer. Cell suspension was applied to the column. Unlabelled flow was collected, which represents enriched monocyte fraction. […]

B1: bFGF: growth factor found in the high salt fraction of resistant tumor lysates (protein, UniProt P15655 10-154, looked up)
Fibroblast growth factor 2: PALPEDGGAAFPPGHFKDPKRLYCKNGGFFLRIHPDGRVDGVREKSDPHVKLQLQAEERGVVSIKGVCANRYLAMKEDGRLLASKCVTEECFFFERLESNNYNTYRSRKYSSWYVALKRTGQYKLGSKTGPGQKAILFLPMSAKS
**Q.** B1 was tested. Which “proliferation of HUVEC cells” value (HUVEC cells) did it give?
**A.** contribute to the proliferation of HUVEC cells

**Q.** What about the chemotactic activity (monocytes) of the same molecule?
**A.** not chemotactic activity
